Laboratory results: the nanobody polyreactivity screen of Harvey et al. (2022)

Test: yeast display, Sf9 membrane polyspecificity reagent, FACS + sequencing; frameworks hold sequencing errors
Summary of the method: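 A nanobody's polyreactivity label depends on the gate it was sorted from. Yeast display cells were stained with 10% biotinylated, detergent-solubilized Sf9 membrane reagent for 1 hour at 4 °C, enriched on streptavidin microbeads and sorted by FACS. The low and high (top ~1%) gates were set on anti-HA fluorescence for expression and streptavidin fluorescence for reagent binding.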

Sequence | polyreactivity (PSR sort gate)
QVQLVESGGGLVQAGGSLRLRCAASGFTIGYNVMGLYRQAPGKERELVATISWNGARTYYADSVKGRFTISRDNAKNTVYLQMNSLKPEDTAVYYCAARRYYRGEYDYWGQGTQVTVSS | low polyreactivity
QVQLVESGGGLFQAGGSLRLICAASGITFEYNTMGWYRQAAGKERELVAAITSDGGSTYYADSVKGRFSISRDNAKNTVYLQMNSLKPEDTAVYYFAAVFYDQYYYWGQGTQVTVSS | high polyreactivity
QVQLVESGGGLVQAGGSLRLSCAASGRIFYSYAMGWYRQAPGKERELDAAITRGGSTSYADSVKGRFTISRDNAKNTVYLQMNSLKPEDTAVYYCATRQFYSYWKYYYWGQGTQVTVSS | high polyreactivity
QVQLVESGGGLVQAGGGLRLSCAASGSILPEYAMGWYRQAPGKERELVAAITTSGGSTYYADSVKGRFTISRDNAKNTVYLQMNSLKPEDTAVYYCAVEYLVYLDYTYDYWGQGTQVTVSS | low polyreactivity
QVQLVESGGGLVQAGGSLRLSCAASGSIFGSYAMGWYRPAPGKERELVAAITIADITYYADSVKGRFTISRDNAKNTVYLQMNSLKPEDTAVYYCAAPYSPLWYPGGDYWRQGTQVTVSS | low polyreactivity
QVQLVESGGGLVQAGGSLRLSCAASGNTFRAYAMGWYRQAPGKERELVATITWSGGITDYADSVKGRFTISRDNAKNTVYLQMNSLKPEDTAVYYCAARSYRWWNFNYWGQGTQVTVSS | high polyreactivity
QVQLVESGGGLVQAGGSLRLSCAASGSTFWYYDMGWYRQAPGKERELVAAITSGGRTNYADSVKGRFTISRDNAKNTVYLQMNSLKPEDTAVYYCARGPLSHTALYWRGRYNYWGQGTQVTVSS | high polyreactivity
QVQLVESGGGLVQAGGSLRLSCAASGRIFSYNAMGWYRQAPGKERELVAAITFSGGGTYYADSVKGRFTISRDNAKYTVYLQMNSLKPEDTAVYYCNKVSYGYSTYGYWGQGTQVTVSS | low polyreactivity
QVQLVESGGGLVQAGGSLRLSCAASGSTFPRYAMGWYRQAPGKERELVAAISSSGRTYYADSVKGRFTISRDNAKNTVYLQMNSLKPEDTAVYYCNAPVARGEASYYWGQGTQVTVSS | high polyreactivity
QVQLVESGGGLVHAGCRLRLSCAPSGSILYYNAMGGYRQAPGNERELVAAITSGGSTYADSVKGRFTISRDNAKNTVYLQMYSLKPEDTAVDYCAADLDWSLSVFGTTLEHDDWGQGTQVTVSS | low polyreactivity
QVQLVESGGGLVQAGGSLRLICAASGFTFDANAMGWYRQAPGKERELVAAITRVGSTFYADSVKGRFTISRDNAKNTVYLQMNSLKPEDTAVYYCNAARDHVSGYVYWGQGTQVTVSS | low polyreactivity
QVQLVESGGGLVQAGGSLRLSCAASGSTFWFNDMGWYRQAPGKEREFVAAISSIGGSTYYADSVKGRFTISRDNAKNNVNLQMNSLKPEDTAVYYCAVEVVRVYRYDYWGQGTQVTVSS | low polyreactivity
QVQLVESGGGLVQAGGSLRLSCAASGRIFYYNGMGWSRQAPGKERELVAAITANGGSTYYADSVKGRFTISRDNAKNTVYLQMNSLKPDDTAVYYCAARYRFGGIRRYNYWGQGTQVTVSS | high polyreactivity
QVQLLESGGGLVQAGGSLRLSCAASGSTFQRYVMGWYRQAPGKERELVATITKSGGSTYYADSVKGRFTISRDIAKNTVYLQMNSLKPEDTAVYNCAAYLQWAFRGYYHWGQGTQVTVTS | high polyreactivity
QVQLVESGGGLVQAGGSLRLSCAASGITFYTYVMGWYRQAHGKERELVAAITNADSTYYADSVKGRFTISRDNAKNTVYLQMNSLKPEDTAVYYCAADWYWGGIVDSWGQGTQVTVSS | high polyreactivity
QVQLVESGGGLVQAGGSLRLSCAASGRTFSQNAMGWYRQAPGKERELVAAIRRGGSTNYADSVKGRFTISRDNEKNTVYLQMHSLKPEDTAVYYCAADLRRNGWGFDYWGQGTQVTVSS | high polyreactivity
QVQLVESVGGLVQAGGSLRLSCAASGRTLYPNAMGWYRQAPGKERELVASISWSGVSTYYADSVKGRFTISRDNAKNTVYLQMNSLKPEDTAVYYCNAVGYWSDGLVWYEGDYWGQGTQVTVSS | low polyreactivity
QFQLVESGGGLVQAGGSLRLSCAASGITFVDNAMGWYRQAPGKERELVAAITNSGSTYADSVKGRFTISRDNAKNTVYVQMNSLKPEDTAVYYCAADYYILLTKSDRLFGSWGQGTQVTVSS | low polyreactivity
QVQLVESGGCLVQAGGSLRLSCAASGRIFGSYAMGWYRHPPGKERELVAAISGSGGRTYYADSVKGRFTISRDNAKNTVYLQMNSLKPEDTAVYYCAADSQSFGYGYWGQGTQVTVSS | high polyreactivity
QVQLEESGGGLVQAGGSLRLSCAPSVIIFPAYDMGWYRQAPGKERELVAAIRTSGTSTYYADSVKGRFTISRDNAKNTVYLEMNSLKPDDTAVYYCGAYQAYGGDYWGQGTQVTVSS | high polyreactivity
QVQLVESGGGVVQAGGSLRLSCAASGSTCSWYVMGWYRQAPGKERELVASISRSGGSTYYADSVKGRFTISRDNAKNTVYLQMNSLKPEDTAVYYCAARQAGYSGRKLYYWAQGTQVTVSS | low polyreactivity
QVQLVESGRGLVQAGGSLRLSCAASGSILTYYTMGWYRQAPGKERELVAAITRRGGSTYYADSVKGRFTISRDNAKNTVYLQMNRLKPEDTAVYYCNRVLSYHRHKLGMGYWGQGTHVTVSS | high polyreactivity

Sequence | polyreactivity (PSR sort gate)
QVQLVESGGGLVQAGGSLRLSCAATGSIFYQNAMGWYRQAPGKDRELVAAISSRGGRTYYADSVKGRFTISRDNAKNTVYLQMNSLKTEDTAVYYFNAARFPYSKDYDYWGQGNQVTVSS | high polyreactivity
QVQLVESGGGLVQAGGSLRVSCAASGSTFCSNAKGWYRQAPGKERELVAAISSGGSTNYADSVKGRFTISRDNAKNTVYLQMYSLKPEDTAVYYCAADRSPEYYWGQGTQVTVSS | low polyreactivity
QVHLVESGGGLVQAGGSLRLSCAASGRIYKYNAMGWYRQAPGKERELVAAISSGGSTNYADSVKGRFTISRDNAKNTVYLQMNSLKPEDTAVYYCAADGTRVSSFHYLVWLGYWGQGTQVTVSS | low polyreactivity
QVQLQGSGGGLAQAGDSLRLSCAASGTIFSEYNNGLVSPGAGQRTRTCCRYWCWGNTYYADSAKGRFTTSRDNANNTVYLQKNSLIPEDTAVYYCAFNRPYPSRHIYRGQGTQVTVSS | high polyreactivity
QVQLVESVGGLDQAGGSLRLSCAASGFTFQYYAMGWYRQAPGKERELVAAITSNGGGTYYADSVKGRFTISRDNAKNTVYLQMNSLKPEDTAVYYCAADRWYSMDYWGQGTQVTVSS | high polyreactivity
QVQLVESGGGLVQAGGSLRLSCAASGIIFGVYAMGWYRQAPGKERELVAAIDGNGSSTYYADSVKGRFTISRDNAKNSVYLQMNSLKPEDTAVYYCNKDVARYPYGKFDYWGQGTQVTVSS | low polyreactivity
QVQLVESGGGLVQAGGRLRLSCAASGRIFVIKSMGWYRQAPAKERELVAAISKRGGSTYYADSVKGRFTISRDNAKNTVYLQMNSLKPEDTAVYYCAARFKTTGYDYWGQGTQVTVSS | high polyreactivity
QVQLVESGGGLVQAGGSLRLSCAASGSIFIWYTMGWYRQAPGKERELVAAIDWNSGSTYYADSVKGRFTISRDNAKNTVYLQMNSLKPEDTAVYYCAATTFSGWFIFYYWGQGTQVTVSS | low polyreactivity
QVQLVESGGGLVQAGGSLRLSCAASGSIFTFYTMGWYRQAPGKERELVATIRWSVGSTYYADSVKGRFTISRDNAKNTVYLQMNSLKPEDTAVYYCAADSQWSYPDYPGEYAYDYWGQGTQVSVSS | low polyreactivity
QVQIVESGGALVQAGGSLRLSCAASGITLRPYAMGWYRQAPGKERELVAAITSSGGSTYYADSVKGRFTISRDIAKNTVYLLMNSLIPEDTAVYYCAALRVYAGDYWGQGTQVTVSS | low polyreactivity
QVQLVESGGGLVQAGGSLRLSCAAYGRTISRNTMAWYRQAPGKERELVAGITYGGDRTYYADSVKGRFTISRDNAKNTVYLQMNSLKPEDTSVYYCAAPWYWKGLRDYWGQGTQVTVSS | low polyreactivity
QVQLQESGGGLVQAGGSLRLSCAASGPISRRSNMGWYRQSPGKESELVTAITRGTNTNYADSVKGRFTISRDNAKYTEYLQMNSLNPEDTAVYYCADYGVLKPSRGDAVFNRYWGQGTQVTVSS | low polyreactivity
QVHLVESGGGLVQAGGSLRLSCAASGSILGGNAMGWYRQAPGKERELVAAITFSGGGTYYADSVKGRFTISRDNAKNTVYLQMNSLKPEDTAVYYCAADKDGYTYEFDYWGQGTQVTVSS | low polyreactivity
QVQLVESGGGLVQAGGSLRLSSAASGLIFSVYAMGWYRQAPGKERELVAAISSRGGTTYYADSVKGRFTISRDNAKNTVYLQMNSLKPEDTAVYYCAARSWSYTYDYWGQGTQVTVSS | high polyreactivity
QVQLVESGGGLVQAGGSLRLSCAASGFIFYYYAMGWYRQAPGKERELVAAITSSGGSTYYADSVKGRFTISRDNAKNTVYLQKNSLKPEDTAVYYCAAYYHGRMDYWGQGTQVTVSS | high polyreactivity
QVQLVESGGGLVQAGGSLRLSCAASGSTFGPYAMGWYRQAPGKERELVAVITTSGSTNYADSVKGRFTISRDNAKNTVYLQMNSLKPEDTAVSYCAARYRYYGTNRYYYWGQGTQVTVSS | high polyreactivity
QVQLVESGGGLVQAGGSLRLSCAASGITLGAYAMGWYRQAPGKERELVAAISRSGGSTYYADSVKGRFTISRDNAKNTVYLQMNSLKPEDTAVYYCNAPRFVSYDYWGQGTQVTVSS | high polyreactivity
QVQLVESGGGLVQAGGSLRLSCAASGFTFIWYAMGWYRQAPGKETELVATISWNGGRTYYADSVKGRFTISRDNANNTVYLQMNSLKPEDTAVYYCAADQGVYRTYWFDYWGQGTQVAVSS | high polyreactivity
QVQLVESGGGLVQAGGSLRLSCAASGRTFVRYAMGWYRQAPGKEREFVAAISWSTGSTYFADSVKGRFTISRDNAKNTVYLQMNSLKPEDTAVYYCAADGYTTYWLLYEYDYWGQGTQVTVSS | low polyreactivity
QVQLVESGGGLVQAGGSLRLSCAASGRTFRTNAMGWYRQAPGKEPELVAAISRGGGSTYYADSVKGRFTISRDNAKNTVYLQMNSLKPEDTAVYDCNALRNGIAFGAMDYWGQGTQVNVSS | high polyreactivity
QVQLVESGGGLVQAGGSLRLSCAPSGITFWVYVMGWYRQAPGKEREFVADISSGAGTTYYADSVKGRFTISRDNAKNTVYLQMNSLKPEDTAVYYCAARRWWPQWYDYWGQGTQVTVSS | high polyreactivity
